These results are taken from US20240226163A1.

Holding throughout (experiment): flow cytometry, peptide-pulsed T2 cells, 100 nM antibody
Experiment [1] concerns the target HLA-A*02:01 presenting FAT4 4053-4062 peptide (…) (human).
The target of experiment [2] is HLA-A*02:01 presenting SCL25A19 111-120 peptide (…) (human).
Experiment [3] addresses HLA-A*02:01 presenting PAPPA2 307-316 peptide (…) (human).
The target of experiment [4] is HLA-A*02:01 presenting MAGE-A4 230-239 peptide (…) (human).
Experiment [5] deals with HLA-A*02:01 presenting CCDC36 417-426 peptide (…) (human).
For experiment [6], the target named is HLA-A*02:01 presenting MAGE-A8 232-241 peptide (…) (human).
Experiment [7] addresses HLA-A*02:01 presenting LPIN2 823-832 peptide (…) (human).
The target in experiment [8] is HLA-A*02:01 presenting CELSR3 1594-1603 peptide (…) (human).
Experiment [9] has as its target HLA-A*02:01 presenting THBS3 116-125 peptide (…) (human).
Experiment [10] addresses HLA-A*02:01 presenting MAGE-A10 254-263 peptide (…) (human).

“mAb1097 (mIgG2a Isotype Control) (antibody)”: the Antibody Binding Ratio (pulsed cell MFI/Unpulsed cell MFI) in experiment [1] was found to be 1.1; in [2], 0.9; in [3], 0.9; in [4], 4.3; in [5] it was 1.1; in [6] it was 3.3. The Antibody Binding Ratio (pulsed cell MFI/Unpulsed cell MFI) in experiment [7] was found to be 0.9; in experiment [8], 0.9; in [9], 1; in experiment [10] it was 1.3.
